What was measured:
ABri23 = target: T1, ABri23 (Homo sapiens, UniProt Q9Y287); assay: ESI-MS binding of Bri2(90-236) to ABri23
T1 construct: purchased Bachem (Bubendorf, Switzerland)
Experimental: (§1) Prior to electrospray ionization mass spectrometry (ESI-MS), purified Bri2(90-236) (SEQ ID NO: 2) was rebuffered into 10 mM ammonium acetate, pH 7.0, using spin columns with a 3 kDa cut-off limit (Nanosep, Pall Corp., East Hills, N.Y., USA). Protein and peptides were mixed at 22° C. directly before analysis at a final protein concentration of 20 μM and a final peptide concentration of 50 μM. Data was acquired using a QTOF Ultima API mass spectrometer (Waters, Milford, Mass., USA) equipped with a Z-spray source operated in the positive-ion mode. Samples were introduced via nano-electrospray using metal-plated borosilicate glass capillary needles (Proxeon, Denmark). The source temperature was 80° C., the capillary voltage 1.7 kV, and the cone and RF lens 1 potentials were 100 and 38 V, respectively. The mass spectrometer was operated in single-reflector mode at a resolution of 10 000 (full width half maximum definition), and the mass scale was calibrated using myoglobin. Scans were acquired at a rate of 1 scan per 2 sec between 500 and 4000 m/z. The collision gas was argon at 5.2×10^−5 mbar. Mass spectra were smoothed using the Waters MassLynx software.
All peptides, with the exception of KFFEYNGKKFFE (SEQ ID NO: 15), ABri23 (SEQ ID NO: 4) and Aβ1-40 (SEQ ID NO: 11), were purchased from Thermo Electron (Darmstadt, Germany). KFFEYNGKKFFE was purchased from Interactiva (Ulm, Germany) and Aβ1-40 and disulfide-linked ABri23 were from Bachem (Bubendorf, Switzerland).
Peptides, except for KFFEYNGKKFFE, ABri23 and Aβ1-40, were acetylated at the N-terminus and amidated at the C-terminus. […]
(§2) ESI-MS binding experiments were conducted to investigate whether Bri2(90-236) can bind the peptides ABri23 and Aβ1-40. For this purpose, Bri2(90-236) was mixed with ABri23, Aβ1-40, or an equimolar mixture of ABri23 and Aβ1-40, to a final concentration of 20 μM Bri2(90-236) and 50 μM of each peptide, and analyzed by ESI-MS. Mass spectra were recorded to investigate the presence and stoichiometry of protein-peptide complexes in the gas phase.

Aβ1-40 [1] = target: T2, Aβ1-40 (Homo sapiens, UniProt P05067); assay: Electron microscopy of Aβ1-40 pellets; type: biochemical; settings: co-incubation with Aβ1-40, 1:1 molar ratio, 5 days
T2 construct: made in house; host or cells: E. coli
Experimental: (§3) […] Aβ1-40 was dissolved in 100% DMSO to 250 μM stock solution, which was diluted to working concentrations. For Thioflavin T (ThT) fluorescence measurements, 10 μl aliquots were removed at different time points, 10 μM ThT (Aldrich) added, and fluorescence was measured with a […] fluorescence plate reader (GE Healthcare), emission wavelength is 480 nm, excitation wavelength 440 nm. Measurements of ThT were done in duplicates. For analysis of soluble Aβ1-40 and ultrastructure of Aβ aggregates, aliquots were removed and centrifuged at 3300 g for 9 min. The supernatant was analyzed by SDS-PAGE and pellets were resuspended in 200 μl distilled water, 2 μl of the resuspension was added onto 200 mesh copper electron microscopy grids, stained with 2% uranyl acetate for 30 s, then left to dry at 20° C. A Hitachi H 7100 microscope operated at 75 kV was used for examination and photographing.

Aβ1-40 [2] = target: T2, Aβ1-40; assay: SDS-PAGE of supernatants, soluble Aβ1-40; type: biochemical; settings: co-incubation with 25 μM Aβ1-40, 37° C., 3 weeks incubation, centrifugation at 3300 g
Experimental: as §3

Aβ1-40 [3] = target: T2, Aβ1-40; assay: ESI-MS binding of Bri2(90-236) to Aβ1-40
Experimental: as §1, with “The mass spectrometer was operated in single-reflector mode at a resolution of 10 000 (full width half maximum definition), and the mass scale was calibrated using myoglobin. Scans were acquired at a rate of 1 scan per 2 sec between 500 and 4000 m/z. The collision gas was argon at 5.2×10^−5 mbar. Mass spectra were smoothed using the Waters MassLynx software.” left out
as §2

Aβ1-40 [4] = target: T2, Aβ1-40; assay: Thioflavin T fluorescence of Aβ1-40 aggregation (Example 3); type: biochemical; settings: 25 μM Aβ1-40, Aβ/Bri2(90-236) molar ratios 1:1, 2:1, 10:1, 37° C., pH 7.0, 24 h period studied
Experimental: 25 μM of Aβ1-40 (SEQ ID NO: 11) was incubated with or without recombinant Bri2(90-236) (SEQ ID NO: 2) in 20 mM phosphate buffer, pH 7.0 at 37° C. for 48 h, with 200 rpm agitation, at Aβ/Bri2(90-236) molar ratios of 1:1, 2:1, or 10:1. Aβ1-40 was dissolved in 100% DMSO to 250 μM stock solution, which was diluted to working concentrations. For Thioflavin T (ThT) fluorescence measurements, 10 μl aliquots were removed at different time points, 10 μM ThT (Aldrich) added, and fluorescence was measured with a […] fluorescence plate reader (GE Healthcare), emission wavelength is 480 nm, excitation wavelength 440 nm. Measurements of ThT were done in duplicates.

T2 sequence (P05067 672-711): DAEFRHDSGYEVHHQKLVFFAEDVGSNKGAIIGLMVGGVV

B1: Bri2(90-236): recombinant protein of residues 90-236 of human Bri2 (SEQ ID NO: 2), encompassing the Brichos domain, expressed in E. coli (protein, listed as Homo sapiens)
chain: GIKYIKDDVILNEPSADAPAALYQTIEENIKIFEEEEVEFISVPVPEFADSDPANIVHDFNKKLTAYLDLNLDKCYVIPLNTSIVMPPRNLLELLINIKAGTYLPQSYLIHEHMVITDRIENIDHLGFFIYRLCHDKETYKLQRRET
In the case of B1, the “Bri2(90-236)/ABri23 complex in competition experiment” value (ABri23; 20 μM Bri2(90-236) with 50 μM Aβ1-40 and 50 μM ABri23 (equimolar), ESI-MS) is reported as “nearly all detectable recombinant Bri2(90-236) is complexed with ABri23”, the “saturation of Bri2(90-236) with ABri23 (complex formation)” value (ABri23; 20 μM Bri2(90-236), 50 μM oxidized ABri23 (2.5-fold molar excess), ESI-MS conditions) is reported as “near-complete saturation” and the “binding preference ABri23 versus Aβ1-40” value (ABri23; competition, both peptides at equimolar amounts, ESI-MS) is reported as “preferentially binds ABri23”. The “amount of Aβ1-40 amyloid-like fibrils in pellets (electron microscopy)” value (Aβ1-40 [1]) was “lower amounts of fibrils”, the “Aβ1-40 in solution (SDS-PAGE of supernatants)” value (Aβ1-40 [2]) was “staying in solution” and the “Bri2(90-236)/Aβ1-40 complex in competition experiment” value (Aβ1-40 [3]; 20 μM Bri2(90-236) with 50 μM Aβ1-40 and 50 μM ABri23 (equimolar)) was “only minor signals”. For the same molecule, the “amount of Bri2(90-236)/Aβ1-40 complexes observed” value (Aβ1-40 [3]; 20 μM Bri2(90-236), 50 μM freshly dissolved Aβ1-40 (2.5 fold excess)) was “Only small amounts” and the “ThT positive aggregates of Aβ1-40” value (Aβ1-40 [4]) was “no ThT positive aggregates were found”.

Source: US8785391B2, “Compound and method for treatment of alzheimer's disease and familial dementia” (Alphabeta AB, priority 2010, dated 2014)
